# Assay results reported in publication PMC12822440, “An Aptamer‐Based EXACT Anticoagulant as a Sustainable, Animal‐Free Alternative to Unfractionated Heparin”.
# Tests used:
# [1] = molecular target: prothrombin (UniProt P00734 44-622); assay: filter binding; dabigatran covalently attached to the aptamer; Nitrocellulose filter binding, 32P 5'-labelled aptamer (500 CPM/uL), selection buffer (composition not given), 5 min at room temperature, n = 2; conditions: protein: commercial; label: 5'-32P
# [2] = molecular target: T1, thrombin (alpha-thrombin) (UniProt P00734;P00734 315-363;364-622); assay: filter binding; dabigatran covalently attached to the aptamer, occupies the active site; Nitrocellulose filter binding, 32P 5'-labelled aptamer (500 CPM/uL), selection buffer (composition not given), 5 min at room temperature, n = 2
# [3] = molecular target: T1, thrombin (alpha-thrombin); assay: filter binding; Nitrocellulose filter binding, 32P 5'-labelled aptamer (500 CPM/uL), selection buffer (composition not given), 5 min at room temperature, n = 2
Binder,Kd [1],Kd [2],Kd [3]
"GGTTGGTGTGGTTGGAAAAAAAAAAAA (structured_DNA, 3'-dabigatran conjugate (DAB) through 12-nt dA linker) [HD1-12A-DAB]",296 nM,0.0131 nM,–
GGTTGGTGTGGTTGG (structured_DNA) [HD1],–,–,110 nM
